A short description of this series: yeast display, Sf9 membrane polyspecificity reagent, FACS + sequencing; frameworks hold sequencing errors. In short, it runs like this: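 Sorting gates, low and high (top ~1%), were placed on anti-HA fluorescence to track expression and on streptavidin fluorescence to track reagent binding. A clone's polyreactivity label is taken from the gate it came out of. The reagent was 10% biotinylated, detergent-solubilized Sf9 membrane, applied for 1 hour at 4 °C to galactose-induced yeast display cells.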
As for “QVQLVESGGGLVQAGGSLRLSCAASGSTRFWKDMGWYRQAPWKERELVAVISFSGVSTYYADSVKGRFTISRDNAKNTVYIQMNRLKPEDTAVYYCAIEDGYSQLKTTFDEPGYGSWGQGTQVNVSS”, the “polyreactivity (PSR sort gate)” value is listed as “low polyreactivity”. For “QVQLVESGGGLVQAGGSLRLSCAASGSTRRDYVMGWYRQAPGKERELVAAITSRVDDTYYADSVKGRFTISRDNAKNTVYLQLNSLKPEDTAVYYCAADYSVTLRIGGYYWFYAFDYWGQGTQLTVSS”, the “polyreactivity (PSR sort gate)” value is given as “low polyreactivity”. For the sequence “QVQLVESGGGLVQAGGSLRLSCAASGSTRYYAMGWYRQAPGKERELVATISSRSRTYYADSVKGRFTISRDNAKNTVYLQMNSLKPDDPAVYYCAARRRRFYYQYYRYDYWGQGTQVTVSS”, the “polyreactivity (PSR sort gate)” value is “high polyreactivity”. Next, “QVQLVESGGGLVQAGGSLRLSCAASGSTSAYYVMGWYRQAPGKERELVAAIDFSGDSTYYADSVKGRFTISRDNAKNTVYLQMNSLKPEDTAVYYCAAELFNYSSLVSYEYWGQGTQVTVSS”: “high polyreactivity”; “QVQLVESGGGLVQAGGSLRLSCAASGSTSRKYTMGWYRQAPGKERELVATISWSGGSTNYADSVKGRFTISRDNAKNTVYLQMNSLKPEDTAVYYCNAYVSPRYRGSRYYYWGQGTQVTVSS”: “high polyreactivity”; “QVQLVESGGGLVQAGGSLRLSCAASGSTSRYNAMGWYRQAPGKERELVARINSGGTTNYADSVKGRFTISRDNAKNTVYLQMNSLKPEDTAVYYCNAYYYFWGQGTQVTVSS”: “low polyreactivity”. As for “QVQLVESGGGLVQAGGSLRLSCAASGSTSRYYDMGWYRQAPGTERELVAAITWSGGTTYYADSVKGRFTISRDNAKNTVYLQMNSLKPEDTAVYYCAASRRGGLYTRYHYWGQGTQVTVSS”, the “polyreactivity (PSR sort gate)” value was “low polyreactivity”. Regarding “QVQLVESGGGLVQAGGSLRLSCAASGSTSSLNAMGWYRQAPGKEREFVATISFGGGRTYYADSVKGRFTISRDNAKNTVYLQMNSLKPEDTAVYYCAAVGSRWFSQTWRDYWGQGTQVTVSS”, the “polyreactivity (PSR sort gate)” value is recorded as “high polyreactivity”. The entry for “QVQLVESGGGLVQAGGSLRLSCAASGSTSSVMLWMGWYRQAPGKEREFVAGISWIDATTYYADSVKGRFTISRDNAKNTVYLQMNSLKPEDTAVYYCAADVRWLWYWYGRYDYWGQGTQVTVSS” is “high polyreactivity”; for “QVQLVESGGGLVQAGGSLRLSCAASGSTSTYNAMGWYRQAPGTERELVAAITESGGSTYYADSVKGRFTISRDNAKNTVYLQMNSLKPEDTAVYYCAADQTYTYDYWGQGTQVTVSS” it is “low polyreactivity”; for “QVQLVESGGGLVQAGGSLRLSCAASGSTSVDYTMGWYRQAPGKESELVAAIDYNGDSTYYADSVKGRFTISRDNAKITVYLQMNRLKPEDTAVYYCAADVWTLDPDEYDYWGQGTQVTLSS” it is “low polyreactivity”. The entry for “QVQLVESGGGLVQAGGSLRLSCAASGSTSVGNAMGWYRQAPGKERELVAAISRIGGTTYYADSVKGRFTISRDNAKNTVYLQMNSLKPEDTAVYYCNVLKRYWSGRVDYWGQGTQVTVSS” is “high polyreactivity”; for “QVQLVESGGGLVQAGGSLRLSCAASGSTSVYYAMGWYRQTPGKERELVAAITWDDGSTSYADSVKGRFTISRDNAKNTVYLQMNSLKPEDTAVYYCAKDYEYLGAFNYWGQGTQVTVSS” it is “low polyreactivity”. Regarding “QVQLVESGGGLVQAGGSLRLSCAASGSTSWYNAMGWYRQAPGKESELVAAISKSGTSTHYADSVKGRFTISRDNAKNTVYIQMNSRKPEDTAVYYCNRVRYALRRFYGTAVGYWGQGTQVTVSS”, the “polyreactivity (PSR sort gate)” value was “low polyreactivity”. The entry for “QVQLVESGGGLVQAGGSLRLSCAASGSTSYTNAMGWYRQAPGKERELVAGITRSGDSTYYADSVKGRFTISRDNAKNTVYLQMNSLKPEDTAVYYCAAEYSGQYYSPVSYLYDYWGQGTQVTVSS” is “high polyreactivity”; for “QVQLVESGGGLVQAGGSLRLSCAASGSTSYVYAMGWYRQAPGKEREFVAAIRSSGGDTYYADSVKGRFTISRDNAKNTVYLQMNRLKPEDSAVYYCNDRYATAVARFGYWGQGTQVTVSS” it is “high polyreactivity”; for “QVQLVESGGGLVQAGGSLRLSCAASGSTTSVNAMGWYTQAPGKEREFVATISFGGGRTYYADSVKGRFTISRDNAKNTVYLQRNSRKPEDTAVYYCAAVGSRWFSQTWRDYWGQGTQVTVSS” it is “high polyreactivity”. As to “QVQLVESGGGLVQAGGSLRLSCAASGSTTYAMGWYRQAPVKERELVAGITFSGGSTNYADSVKGRFTISRDNAKNTVYLQMNSLKPEDTAVYYCAAKLWHHSYRYDYWGQGTQVTVSS”, the “polyreactivity (PSR sort gate)” value was “low polyreactivity”. The entry for “QVQLVESGGGLVQAGGSLRLSCAASGSTVAYYAMGWYRQAPGKERELVAAITWNGGRTFYADSVKGRFTISRDNAKNTVYLQMNSLKPEDTAVYYCAAATYQSRYFQRFDYWGQGTQVTVSS” is “high polyreactivity”; for “QVQLVESGGGLVQAGGSLRLSCAASGSTVDANAMGWYRPAPGKERELVATISDGGSTNYADSVKGRFTISRDNAKKTVYVQKNSLKPEDTAVYYCAAVKLFLGLGYDYWGQGTQVTVSS” it is “low polyreactivity”. The entry for “QVQLVESGGGLVQAGGSLRLSCAASGSTVHYMGWYRPAPGKERELVAGISWSGGSTYYADSVKGRFTISRDNAKNTVYLQMTSLKPEDTAVYYCAADIKIRLYTTGDYWGQGTQVTVSS” is “low polyreactivity”; for “QVQLVESGGGLVQAGGSLRLSCAASGSTVYLNAMGWYRQAPGKDRELVAAITRIGGSTYYADSVKGRFTISRDNAKNTVYLQMNSLKPEDTAVYYCAKDYGPARHDRYGYWGLGTQVTVSS” it is “low polyreactivity”; for “QVQLVESGGGLVQAGGSLRLSCAASGSTVYYNAMGWYRQAPGKERELVADITTSGDSTYYADSVKGRFTISRDNAKNTVYFQMNSLKPEDTAVYYCNAGVVGDYPYWGLMDYWGQGTQVTVSS” it is “high polyreactivity”.

For the sequence “QVQLVESGGGLVQAGGSLRLSCAASGSTWWYDMGSYRQAPGKERELVASISSGDSTNYADSVKGRFTISRDNAKNTVYLQMNSLKPEDTAVYYCAADFNFGFVWGDDYDYWGQGTQVTVSS”, the “polyreactivity (PSR sort gate)” value is recorded as “low polyreactivity”. Regarding “QVQLVESGGGLVQAGGSLRLSCAASGSTYAMGWYRQAPGKERELVASITSRGGSTYYADSVKGRFTISRDNANNTVYLQMNSLKPEDTAVYYCAARWYYSYICYDYWRQGTQVTVSS”, the “polyreactivity (PSR sort gate)” value is reported as “high polyreactivity”. Consider “QVQLVESGGGLVQAGGSLRLSCAASGSTYDSNAMGWYRQAPGKERELVAAIDWSGGSTYYADSVKGRFTISRDNAKNTVYLQMNSLKPADTAVYYCAADDSSINYGDFDYWGQGTQVTVSS”, for which the “polyreactivity (PSR sort gate)” value is recorded as “low polyreactivity”. Consider “QVQLVESGGGLVQAGGSLRLSCAASGSTYFRNAMGWYRQAPGKERELVADISASGGSTYYADSVKGRFTISRDNAKNTVYLQMNSLKPEDTAVYYCNALYIYFYNYLTIVYWGQGTQVTVSS”, for which the “polyreactivity (PSR sort gate)” value was “low polyreactivity”. On to “QVQLVESGGGLVQAGGSLRLSCAASGSTYGIYAMGWYRQAPGKERELVAAISSGGSTNYADSVKGRFTISRDNAKNTVYLQMNSLKPEDTAVYYCAVESVYEYGGYVDSAYDYWGQGTQVTVSS”, for which the “polyreactivity (PSR sort gate)” value is “low polyreactivity”. Next, “QVQLVESGGGLVQAGGSLRLSCAASGSTYPYPYTMGWSRQAPGKERELVAVISRTGGSTFYADSVKGRFTISRDNAKNTVHLQMNSLKPEDTAVYYCAARRDGWTFWKYDYWGQGTQVTVSS”: “high polyreactivity”; “QVQLVESGGGLVQAGGSLRLSCAASGSYAKGWYRQAPGKERELVAYINGRDGSTYYADSVKGRFTISRDNAKNTVYLQMNSLIPEDTAVYYCNADYVLQYNYWGQGTQVTVSS”: “low polyreactivity”. Next, “QVQLVESGGGLVQAGGSLRLSCAASGTFGVYAMGWYRQSPGKERELVAVITDSGGTNYADSVKGRFTISRDNAKNTVYLQMNSLKPEDTAVYYCNTDAGDYYGENYWGQGTQVTVSS”: “low polyreactivity”; “QVQLVESGGGLVQAGGSLRLSCAASGTFKWYAMGWYRQAPGKERELVAVISSSGGTTYYADSVKGRFTISRDTAKITVYLQMNSLKPEDTAFYYCNAAKLFRYDYWGQGTQVTVSS”: “high polyreactivity”; “QVQLVESGGGLVQAGGSLRLSCAASGTFTSNAMGWYRQAPGKERELVAVITGGGRTNYADSVKGRFTISRDNAKNTVYLQMNSLKPEDTAVYYCAAEVYLPYYERYDYWGQGTQVTVSS”: “low polyreactivity”. Turning to “QVQLVESGGGLVQAGGSLRLSCAASGTFVTYMGWSRQAPGKERELVAAIRNGGSTNNADTVKGRFTISRDNAKNTVYLQMNSLIPEDTAVYYCAPRFTYSRGYRGGSRTKYDYWGQGTQVTVSS”, the “polyreactivity (PSR sort gate)” value is given as “low polyreactivity”. Regarding “QVQLVESGGGLVQAGGSLRLSCAASGTFVYYAMGWYRQAPGKERELVAVISLNGGITYYADSVKGRFTISRDNAKNTVYLQMNSLKPEDTAVYYCNAQFYNSGWSFKYYYWGQGTQVTVSS”, the “polyreactivity (PSR sort gate)” value is “low polyreactivity”.

As to “QVQLVESGGGLVQAGGSLRLSCAASGTFYKYAMGWYRQAPGKERELVAAISWRGGRTYADSVKGRFTISRDNAKNTVYLQMNSLKPEDTAVYYCNKRFYPEHYYWGQGTQVTVSS”, the “polyreactivity (PSR sort gate)” value is on record as “high polyreactivity”. On to “QVQLVESGGGLVQAGGSLRLSCAASGTFYPNAMGWYRQAPGKERELVAAISEDGGGTYYADSVKGRFTISRDNAKNTVYLQMNSLKPEDTAVYYCAAEYYDYWYTYDYWGQGTQVTVSS”, for which the “polyreactivity (PSR sort gate)” value is reported as “high polyreactivity”. On to “QVQLVESGGGLVQAGGSLRLSCAASGTIFDAYAMGWYRQAPGKERELVAAISLDDGSTYYADSVKGRFTISRDNAKNTVYLQMNSLKPEDTAVYYCAADYYVRSQHLYATSGNYWGQGTQVTVSS”, for which the “polyreactivity (PSR sort gate)” value is “high polyreactivity”. As to “QVQLVESGGGLVQAGGSLRLSCAASGTIFPGYTIGWYRQAPGKEREFVAAISRRGGSTYYADSVKGRFTISRDNAKNTVYLQMNSLKPEDTAVYYCPKVPDYRFEYWGQGTLVTVSS”, the “polyreactivity (PSR sort gate)” value is “high polyreactivity”.

With “QVQLVESGGGLVQAGGSLRLSCAASGTIFRLYTMGWYSQAPGKERELVAAITGSGDSTYYADSVKGRFTISRDNAKNTVYLQMNSLKPEDTAFYYFAAKLSRVKYGYWGQGTQVTVSS”, the “polyreactivity (PSR sort gate)” value is listed as “high polyreactivity”.

Regarding “QVQLVESGGGLVQAGGSLRLSCAASGTIFRVYAMGRYRQAPGTERELVAAISSSGGSTYYADSVKGRFTISRDNAKTTVYLQMNSLKPEDTAVYYCAAEYDGPYTWVDYYYHYGYWGQGTQVTVSS”, the “polyreactivity (PSR sort gate)” value is “low polyreactivity”.

(Values after the nanobody polyreactivity screen of Harvey et al. (2022).)
